Reference: paper PMC4806843, “Structural and Functional Analysis of Calcium Ion Mediated Binding of 5-Lipoxygenase to Nanodiscs” (PLoS ONE, 2016)

Target: the molecule itself
Test: SEC; size exclusion chromatography of the purified 5LO preparation; standards aldolase (158 kDa) and conalbumin (75 kDa); two peaks, dimer and monomer

B1: human 5-lipoxygenase (enzyme, UniProt P09917 1-674, looked up)
chain: MPSYTVTVATGSQWFAGTDDYIYLSLVGSAGCSEKHLLDKPFYNDFERGAVDSYDVTVDEELGEIQLVRIEKRKYWLNDDWYLKYITLKTPHGDYIEFPCYRWITGDVEVVLRDGRAKLARDDQIHILKQHRRKELETRQKQYRWMEWNPGFPLSIDAKCHKDLPRDIQFDSEKGVDFVLNYSKAMENLFINRFMHMFQSSWNDFADFEKIFVKISNTISERVMNHWQEDLMFGYQFLNGCNPVLIRRCTELPEKLPVTTEMVECSLERQLSLEQEVQQGNIFIVDFELLDGIDANKTDPCTLQFLAAPICLLYKNLANKIVPIAIQLNQIPGDENPIFLPSDAKYDWLLAKIWVRSSDFHVHQTITHLLRTHLVSEVFGIAMYRQLPAVHPIFKLLVAHVRFTIAINTKAREQLICECGLFDKANATGGGGHVQMVQRAMKDLTYASLCFPEAIKARGMESKEDIPYYFYRDDGLLVWEAIRTFTAEVVDIYYEGDQVVEEDPELQDFVNDVYVYGMRGRKSSGFPKSVKSREQLSEYLTVVIFTASAQHAAVNFGQYDWCSWIPNAPPTMRAPPPTAKGVVTIEQIVDTLPDRGRSCWHLGAVWALSQFQENELFLGMYPEEHFIEKPVKEAMARFRKNLEAIVSVIAERNKKKQLPYYYLSPDRIPNSVAI
notes: 5-lipoxygenase (5LO), human, recombinant from pT3-5LO; 78 kDa; The preparation holds monomer and dimer, which were separated by SEC; also called 5LO; monomeric 5LO; source: E. coli BL21-(DE3) transformed with pT3-5LO, purified (ammonium sulfate precipitation, ATP agarose, gel filtration)
stoichiometry N: 2
